The source of these data is publication PMC10418163 (bioRxiv, 2024).

Assay [1] addresses Pseudomonas aeruginosa PhuR refolded from inclusion bodies (Pseudomonas aeruginosa PAO1, UniProt Q9HV88). The assay is described as follows: SEC. A general note: Size exclusion chromatography separates by hydrodynamic size, large species first.
Assay [2] concerns the target Pseudomonas aeruginosa PhuR, natively expressed (purified from E. coli outer membranes, heme-bound) (Pseudomonas aeruginosa PAO1, UniProt Q9HV88). Kind of assay: ELISA. For orientation: In an ELISA, binding on a coated surface is turned into a signal by an enzyme label.

B1: synthetic antibody sAB11 (Fab, V domains shown)
VH: EVQLVESGGGLVQPGGSLRLSCAASGFNFYYYSIHWVRQAPGKGLEWVASISPYYGSTYYADSVKGRFTISADTSKNTAYLQMNSLRAEDTAVYYCARSMNWYYSSPYGMSQGMDYWGQGTLVTVSS
VL: DIQMTQSPSSLSASVGDRVTITCRASQSVSSAVAWYQQKPGKAPKLLIYSASSLYSGVPSRFSGSRSGTDFTLTISSLQPEDFATYYCQQGSSSPLTFGQGTKVEIK
B1: the binding result in assay [1] was “binds”. In addition, in assay [2], the concentration for a half-maximal effect (EC50) (usually the concentration needed to bring the measured effect to its halfway point) was roughly 9 nM.
